From US20240343793A1 (TILLOTTS PHARMA, published 2024)
Where a chain is given by its changes, count along the chain named. Names may count otherwise. One block for each binder: values may come before it.

Tests used:
CD64 = biological target: T1, CD64 (UniProt P12314 16-288, limits assumed); experiment: SPR (Biacore), His-tagged FcγR captured on anti-His chip, antibody as analyte
T1 construct: His-tagged (captured on an anti-His chip); also called Fcγ receptor CD64
Experimental: (§1) Affinity to FcγRs was measured by Biacore. A CM5 chip was prepared using standard amine immobilisation Biacore procedures. Upon insertion of a CM5 chip the system was primed and then normalised with BIA-normalizing solution (Biacore Preventative Maintenance Kit 2). The chip was added to the system with Phosphate Buffered Saline Tween-20 (PBS-T) running buffer; prior to immobilisation the chip surface was primed with three injections of 50 mM NaOH. FcγRs were immobilised on the chip surface using a His-tag capture system. The anti-His tag chip was prepared according to the Biacore kit instructions, with ˜12000 RU's of the antibody deposited on all 4 flow cells. To remove non-covalently bound material from all the chip flow cells, three 30 second 10 mM glycine pH 1.5 washes were performed. The Fcγ receptors were diluted in PBS-T to a range of 0.5-2 μg/mL, with 2.5-5.0 μL injected onto the chip generating capture levels between 60 and 200 RU's. Antibodies were diluted into PBS-T prior to analysis. Single cycle kinetics were used to estimate the steady state affinity. For each single cycle analysis cycle a titration of 5 antibody concentrations were injected over the FcγR ligand and then the dissociation of the complex was measured. The surface was regenerated using the recommended solution, 10 mM glycine pH 1.5 for the anti-His capture surface. A double referencing method was employed in which data from the ligand bound capture surface (fc 2 and 4) were subtracted from the references surfaces where no ligand was captured (fc 1 and 3 respectively). Blank injections of buffer were run for every antibody titration cycle and then subtracted from analyte injection cycles, to correct for small changes in the ligand capture surface. All analysis was performed at 25° C. and the sample rack was incubated at 10° C. during experimental runs. Each experiment was run at least three times.

CD32a(H) = biological target: T2, CD32a(H) (UniProt P12318 36-218); experiment: as above
T2 construct: His-tagged; also called Fcγ receptor CD32a(H)
T2 sequence (looked up): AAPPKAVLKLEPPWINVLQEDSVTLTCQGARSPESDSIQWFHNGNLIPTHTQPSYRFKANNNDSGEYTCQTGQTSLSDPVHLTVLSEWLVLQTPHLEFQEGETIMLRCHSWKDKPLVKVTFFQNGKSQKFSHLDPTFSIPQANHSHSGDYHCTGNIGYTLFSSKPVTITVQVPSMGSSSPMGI
Experimental: as §1

CD32b = biological target: T3, CD32b (UniProt P31994 46-217); experiment: as above
T3 construct: His-tagged; also called Fcγ receptor CD32b
T3 sequence (looked up): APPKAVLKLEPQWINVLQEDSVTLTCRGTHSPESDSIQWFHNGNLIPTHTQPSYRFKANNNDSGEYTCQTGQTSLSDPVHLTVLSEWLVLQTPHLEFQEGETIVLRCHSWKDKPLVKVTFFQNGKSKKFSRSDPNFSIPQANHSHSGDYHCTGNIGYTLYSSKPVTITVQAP
Experimental: as §1

CD16a(V) [1] = biological target: T4, CD16a(V) (UniProt P08637 17-208); experiment: as above
T4 construct: His-tagged; also called Fcγ receptor CD16a(V)
T4 sequence (P08637 17-208 F176V limits assumed): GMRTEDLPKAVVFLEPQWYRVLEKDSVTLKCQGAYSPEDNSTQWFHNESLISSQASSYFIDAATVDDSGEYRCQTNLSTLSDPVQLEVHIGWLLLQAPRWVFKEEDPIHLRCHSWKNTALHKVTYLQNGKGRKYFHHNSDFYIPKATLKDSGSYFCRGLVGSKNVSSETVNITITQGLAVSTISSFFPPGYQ
Experimental: as §1

human TNFα [2] = biological target: T5, human TNFα (human, UniProt P01375 77-233); experiment: SPR (Biacore), antibody captured on Protein A, TNFα as analyte, single cycle kinetics, 25 C
T5 construct: also called recombinant TNFα
T5 sequence (P01375 77-233 limits assumed): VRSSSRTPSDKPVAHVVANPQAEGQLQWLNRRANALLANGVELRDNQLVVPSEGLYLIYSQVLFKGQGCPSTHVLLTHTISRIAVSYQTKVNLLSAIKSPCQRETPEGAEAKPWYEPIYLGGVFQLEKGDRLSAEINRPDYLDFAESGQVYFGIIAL
Experimental: Affinity to TNFα was measured by Biacore. A CM5 chip was prepared using standard amine immobilisation Biacore procedures. Upon insertion of a CM5 chip the system was primed and then normalised with BIA-normalising solution (Biacore Preventative Maintenance Kit 2). The chip was added to the system with PBS-T running buffer; prior to immobilisation the chip surface was primed with three injections of 50 mM NaOH. Protein A was immobilised on the chip surface. For this, the protein was diluted to 5 μg/mL into 10 mM acetate buffer at pH 4.5 and injected so to generate a bound response of ˜1000 RU's in all 4 flow cells. To remove non-covalently bound material from all the chip flow cells, three 15 second 50 mM NaOH washes were performed. On the Protein A chip, antibody was captured in flow cells 2 and 4, with flow cells 1 and 3 used for reference subtraction. The trial antibodies were diluted in PBS-T to 10 nM and 2.5-7.5 uL injected to obtain 120 RU of captured antibody. […] For each single cycle analysis cycle a titration of 5 analyte concentrations were injected over the ligand and then the dissociation of the complex was measured. The surface was regenerated using glycine pH 1.7. A double referencing method was employed in which data from the ligand bound capture surface (fc 2 and 4) were subtracted from the references surfaces where no ligand was captured (fc 1 and 3 respectively). Blank injections of buffer were run every 3-4 cycles and then subtracted from analyte injection cycles, to correct for small changes in the ligand capture surface. Repeat injections of analyte at the start and end of each analytical run were used to check for sample degradation, or changes in the instrument performance. All analysis was performed at 25° C. and the sample rack was incubated at 10° C. during experimental runs. Each experiment was run at least three times. A 1-to-1 binding model was used to fit the resulting kinetic data.

[3] = biological target: T6, monomeric His-tagged human FcRn (human, UniProt P55899 24-297; P61769 21-119); experiment: SPR (Biacore 3000), antibody amine-coupled, monomeric His-tagged hFcRn injected, pH 6.0; pH 6.0
T6 construct: also called hFcRn
Experimental: (§2) SPR was performed using a Biacore 3000 instrument with CM5 sensor chips coupled with anti-TNFα IgG1 antibodies (˜500 resonance units (RU)) using amine-coupling chemistry as described by the manufacturer. The coupling was performed by injecting 2.0 ug/mL of each protein in 10 mM sodium acetate, pH 4.5, using the amine-coupling kit (GE Healthcare). […] All SPR experiments were conducted at 25° C. with a flow rate of 40 ul/min. Binding data were zero-adjusted, and reference cell value subtracted. The Langmuir 1:1 ligand binding model provided by the BIAevaluation software (version 4.1) was used to determine the binding kinetics.

human TNFα [4] = biological target: T5, human TNFα; experiment: cell-based or functional assay
[5] = biological target: T6, monomeric His-tagged human FcRn; experiment: SPR, pH 6.0; KD against that of IFX; pH 6.0; fold change from IFX
Experimental: as §2

[6] = biological target: T6, monomeric His-tagged human FcRn; experiment: SPR, pH 6.0; KD against that of Ab-wt; pH 6.0; fold change from wt
Experimental: as §2

CD32a(R) = biological target: T7, CD32a(R) (UniProt P12318 36-218); experiment: SPR (Biacore), His-tagged FcγR captured on anti-His chip, antibody as analyte
T7 construct: His-tagged; also called Fcγ receptor CD32a(R)
T7 sequence (looked up): T2 sequence (looked up) with H132R
Experimental: as §1

CD16a(F) = biological target: T8, CD16a(F) (UniProt P08637 17-208); experiment: as above
T8 construct: His-tagged
T8 sequence (P08637 17-208 limits assumed): as the sequence (P08637 17-208 F176V limits assumed) above, with V160F counted along it
Experimental: as §1

CD16b(NA2) = biological target: T9, CD16b(NA2) (UniProt O75015 17-200, limits assumed); experiment: as above
T9 construct: His-tagged
T9 sequence (O75015 17-200 N65S limits assumed): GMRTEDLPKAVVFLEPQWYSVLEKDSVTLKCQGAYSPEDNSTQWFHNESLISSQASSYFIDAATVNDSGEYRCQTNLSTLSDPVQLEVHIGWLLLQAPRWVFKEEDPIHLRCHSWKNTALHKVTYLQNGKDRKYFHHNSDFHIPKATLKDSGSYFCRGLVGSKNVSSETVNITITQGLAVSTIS
Experimental: as §1

human C1q = human C1q (human, UniProt P02745 23-245; P02746 28-253; P02747 29-245); experiment: ELISA: antibody titrated onto plate-coated human TNFα, then human C1q at 0.5 µg/mL, detected with rabbit anti-human C1q and HRP anti-rabbit IgG, absorbance 620 nm
Sequence of human C1q (P02745 23-245, chain 1 of 3): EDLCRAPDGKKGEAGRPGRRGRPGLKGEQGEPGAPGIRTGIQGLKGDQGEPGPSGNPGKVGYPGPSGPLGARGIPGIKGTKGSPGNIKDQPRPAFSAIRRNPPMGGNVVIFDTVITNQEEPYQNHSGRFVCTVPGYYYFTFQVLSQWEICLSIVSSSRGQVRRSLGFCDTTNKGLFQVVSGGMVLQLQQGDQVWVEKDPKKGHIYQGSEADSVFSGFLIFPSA
Sequence of human C1q (P02746 28-253, chain 2 of 3): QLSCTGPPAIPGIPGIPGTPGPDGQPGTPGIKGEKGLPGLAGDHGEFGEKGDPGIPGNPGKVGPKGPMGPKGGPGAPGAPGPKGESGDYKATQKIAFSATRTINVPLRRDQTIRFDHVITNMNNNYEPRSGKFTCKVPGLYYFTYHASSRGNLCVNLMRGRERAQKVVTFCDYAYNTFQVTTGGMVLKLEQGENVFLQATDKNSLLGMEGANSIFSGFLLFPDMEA
Sequence of human C1q (P02747 29-245, chain 3 of 3): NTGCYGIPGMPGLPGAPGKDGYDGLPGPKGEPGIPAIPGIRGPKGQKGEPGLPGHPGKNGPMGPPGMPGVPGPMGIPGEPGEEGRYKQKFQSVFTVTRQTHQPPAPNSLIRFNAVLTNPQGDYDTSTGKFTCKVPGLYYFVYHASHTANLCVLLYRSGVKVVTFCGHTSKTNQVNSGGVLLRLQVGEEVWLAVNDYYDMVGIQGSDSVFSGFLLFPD
Experimental: ELISA was performed using 96-well MaxiSorp plates where the wells were coated with human TNFα diluted to 1 μg/mL in PBS. After incubation O/N at 4° C., the plates were blocked with PBS containing 4% skimmed milk for 1 h and washed four times with PBS containing 0.05% Tween-20 (PBS-T). Then, titrated amounts of the anti-TNFα IgG antibodies were diluted in PBS-T, added and incubated for 1 h at RT. After washing using PBS-T, human C1q (0.5 μg/mL) was diluted in 0.1 M Veronal buffer (0.25 mM CaCl₂ and 0.8 mM MgCl₂ pH 7.2), added to the wells and incubated for 1 h. Subsequently, the wells were washed as above before rabbit anti-human C1q diluted 1:5000 in PBS-T was added to the wells and incubated for 1 h. After washing, an HRP-conjugated anti-rabbit IgG from donkey diluted 1:5000 in PBS-T was added. Subsequently, the wells were washed and 100 μL 3,3′,5,5′-Tetramethylbenzidine substrate was added to each well. The absorbance was measured at 620 nm using a Sunrise spectrophotometer.

CD16a(V) [7] = biological target: T4, CD16a(V); experiment: SPR (Biacore), His-tagged FcγR captured; reference not named in the sentence (Ab-wt by Table 5)
Experimental: Affinity to FcγRs was measured by Biacore. A CM5 chip was prepared using standard amine immobilisation Biacore procedures. Upon insertion of a CM5 chip the system was primed and then normalised with BIA-normalizing solution (Biacore Preventative Maintenance Kit 2). The chip was added to the system with Phosphate Buffered Saline Tween-20 (PBS-T) running buffer; prior to immobilisation the chip surface was primed with three injections of 50 mM NaOH. FcγRs were immobilised on the chip surface using a His-tag capture system. The anti-His tag chip was prepared according to the Biacore kit instructions, with ˜12000 RU's of the antibody deposited on all 4 flow cells. To remove non-covalently bound material from all the chip flow cells, three 30 second 10 mM glycine pH 1.5 washes were performed. The Fcγ receptors were diluted in PBS-T to a range of 0.5-2 μg/mL, with 2.5-5.0 μL injected onto the chip generating capture levels between 60 and 200 RU's. Antibodies were diluted into PBS-T prior to analysis. Single cycle kinetics were used to estimate the steady state affinity. For each single cycle analysis cycle a titration of 5 antibody concentrations were injected over the FcγR ligand and then the dissociation of the complex was measured. The surface was regenerated using the recommended solution, 10 mM glycine pH 1.5 for the anti-His capture surface. […]

T1 sequence (P12314 16-288 limits assumed): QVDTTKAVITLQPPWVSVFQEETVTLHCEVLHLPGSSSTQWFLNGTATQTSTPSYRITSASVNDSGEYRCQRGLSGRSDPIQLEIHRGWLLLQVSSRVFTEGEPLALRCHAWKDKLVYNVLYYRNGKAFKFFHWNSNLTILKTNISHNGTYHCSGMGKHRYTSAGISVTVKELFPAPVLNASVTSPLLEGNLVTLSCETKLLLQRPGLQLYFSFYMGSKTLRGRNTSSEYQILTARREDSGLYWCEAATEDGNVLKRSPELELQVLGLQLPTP

Kd (CD64): 2.92 nM
Kd (CD32a(H)): 670 nM
Kd (CD32b): 3140 nM
Kd (CD16a(V) [1]): 184 nM
Kd (human TNFα [2]): 4.13 pM
koff (human TNFα [2]): 3.45e-05 s⁻¹
kon (human TNFα [2]): 8.37e+06 M⁻¹ s⁻¹
Kd [3]: 1000 nM
B1: Ab-wt (antibody, human IgG1, kappa)
heavy: not shown
light: DIQMTQSPSSLSASVGDRVTIKCQASQSIFSGLAWYQQKPGKAPKLLIYGASKLASGVPSRFSGSGSGTEFTLTISGLQPADFATYYCQSYYYSSSSSDGSYAFGGGTKLTVLGRTVAAPSVFIFPPSDEQLKSGTASVVCLLNNFYPREAKVQWKVDNALQSGNSQESVTEQDSKDSTYSLSSTLTLSKADYEKHKVYACEVTHQGLSSPVTKSFNRGEC
notes: Human IgG1 anti-TNFα antibody with wild-type Fc; also called parent antibody; wild-type antibody

IC50 (read off the curve) (human TNFα [4]): ~7 ng/mL
Fold change from IFX [5]: 75.8 fold
Fold change from wt [6]: 178 fold
Kd (CD64): 2.8 nM
Kd (CD32a(H)): 780 nM
Kd (CD32a(R)): 1600 nM
Kd (CD32b): 1210 nM
Kd (CD16a(V) [1]): 280 nM
Kd (CD16a(F)): 2410 nM
Kd (CD16b(NA2)): 1650 nM
Kd (human TNFα [2]): 3.3 pM
koff (human TNFα [2]): 2.04e-05 s⁻¹
kon (human TNFα [2]): 6.22e+06 M⁻¹ s⁻¹
Kd [3]: 5.61 nM
EC50 (read off the curve) (human C1q): ~0.4 µg/mL
B2: Ab-REW (antibody, human IgG1, kappa)
heavy: EVQLVESGGGLVQPGGSLRLSCKASGIDFNNYGIGWVRQAPGKGLEWITYIYPGFAITNFANSVKGRFTISSDNSKNTVYLQMNSLRAEDTAVYYCARDPVYATSSGYFDLWGQGTLVTVSSASTKGPSVFPLAPSSKSTSGGTAALGCLVKDYFPEPVTVSWNSGALTSGVHTFPAVLQSSGLYSLSSVVTVPSSSLGTQTYICNVNHKPSNTKVDKKVEPKSCDKTHTCPPCPAPELLGGPSVFLFPPKPKDTLMISRTPEVTCVVVDVSHEDPEVKFNWYVDGVEVHNAKTKPREEQYNSTYRVVSVLTVLHRDWLNGKEYKCKVSNKALPAPIEKTISKAKGQPREPQVYTLPPSREEMTKNQVSLTCLVKGFYPSDIAVEWESNGQPENNYKTTPPVLDSDGSFFLYSKLTVDKSRWQQGNVFSCSVEHEALHWHYTQKSLSLSPGK
light: B1 light
notes: IgG1; also called REW containing variant; Q311R/M428E/N434W variant of Ab-wt

IC50 (read off the curve) (human TNFα [4]): ~7 ng/mL
Fold change from IFX [5]: 68.1 fold
Fold change from wt [6]: 160 fold
Kd (CD64): 2.93 nM
Kd (CD32a(H)): 1870 nM
Kd (CD32a(R)): 1450 nM
Kd (CD32b): 1130 nM
Kd (CD16a(V) [1]): 33.5 nM
Kd (CD16a(F)): 150 nM
Kd (CD16b(NA2)): 400 nM
fold increase in affinity (CD16a(V) [7]): 5.5 fold
kon (human TNFα [2]): 5.8e+06 M⁻¹ s⁻¹
Kd [3]: 6.24 nM
EC50 (read off the curve) (human C1q): ~0.6 µg/mL
B3: Ab-REW-2FF (antibody, human IgG1, kappa)
heavy: B2 heavy
light: B1 light
modifications: N-glycans at N297 (EU numbering) with greatly reduced fucose (13% fucosylated), made with 2-deoxy-2-fluoro-fucose (2FF) in the culture medium
notes: IgG1; also called non-fucosylated variant of Ab-REW

EC50 (read off the curve) (human C1q): ~0.5 µg/mL
B4: infliximab (antibody)
chain 1: not shown
chain 2: DILLTQSPAILSVSPGERVSFSCRASQFVGSSIHWYQQRTNGSPRLLIKYASESMSGIPSRFSGSGSGTDFTLSINTVESEDIADYYCQQSHSWPFTFGSGTNLEVKRTVAAPSVFIFPPSDEQLKSGTASVVCLLNNFYPREAKVQWKVDNALQSGNSQESVTEQDSKDSTYSLSSTLTLSKADYEKHKVYACEVTHQGLSSPVTKSFNRGEC
